Values quoted from earlier work in patent publication US7235367B2, “Method using crystal structure of estrogen receptor-β complex” (Genetics Institute, LLC., priority 2000, dated 2007).

Biological target: ER-β (Homo sapiens, UniProt Q92731)
Conditions: co-activator, ER-β versus ER-α

Chain of ER-β (Q92731 whole entry): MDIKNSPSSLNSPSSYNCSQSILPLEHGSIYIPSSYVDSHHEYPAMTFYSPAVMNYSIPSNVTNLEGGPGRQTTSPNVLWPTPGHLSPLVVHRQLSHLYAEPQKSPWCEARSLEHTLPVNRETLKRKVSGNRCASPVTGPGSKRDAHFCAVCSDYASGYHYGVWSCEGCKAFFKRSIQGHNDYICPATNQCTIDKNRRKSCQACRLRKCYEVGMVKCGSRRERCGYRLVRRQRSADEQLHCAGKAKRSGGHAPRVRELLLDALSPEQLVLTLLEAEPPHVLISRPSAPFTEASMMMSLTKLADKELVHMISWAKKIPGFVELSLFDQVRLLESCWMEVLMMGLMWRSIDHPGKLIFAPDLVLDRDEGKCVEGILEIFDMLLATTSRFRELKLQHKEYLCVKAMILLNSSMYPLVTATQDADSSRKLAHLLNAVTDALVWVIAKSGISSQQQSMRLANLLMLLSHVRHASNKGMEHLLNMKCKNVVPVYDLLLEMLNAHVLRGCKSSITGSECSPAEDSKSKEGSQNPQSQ

Substance: SRC-1: co-activator protein that preferentially activates ER-β
- preferential activation of ER subtype: preferentially activates ER-β
